Where a chain is given by its changes, count along the chain named. Each block holds one binder with its values, some of them ahead of it.
Columns and labels:
[1] = target: T1, cynomolgus monkey FcγRIIa2 extracellular domain, His-tagged (cynomolgus monkey); assay: SPR Biacore, antibody captured, FcgR analyte
T1 construct: also called cyno FcγRIIa2; cynoFcgRIIa2; not shown: C-terminal His-tag
T1 chain: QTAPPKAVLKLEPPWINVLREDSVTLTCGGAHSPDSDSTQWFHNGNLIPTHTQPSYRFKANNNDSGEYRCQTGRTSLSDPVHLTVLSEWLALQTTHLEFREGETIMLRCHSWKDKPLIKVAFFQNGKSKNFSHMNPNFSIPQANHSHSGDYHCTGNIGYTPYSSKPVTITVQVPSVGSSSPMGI

[2] = target: T2, cynomolgus monkey FcγRIIa1 extracellular domain with C-terminal His-tag (cynomolgus monkey); assay: SPR Biacore, antibody captured, FcgR analyte
T2 construct: also called cyno FcgRIIa1; cynoFcγRIIa1; not shown: His-tag added to C-terminus
T2 chain: T1 chain with T95P, A121T, K127I, S128A, N130K, N135D, Q142R

[3] = target: T3, cynomolgus monkey FcγRIIIaS extracellular domain with C-terminal His-tag (cynomolgus monkey, UniProt A3RFZ7 21-206 (rhesus entry)); assay: SPR Biacore, antibody captured, FcgR analyte
T3 construct: also called cyno FcgRIIIaS; cynoFcγRIIIaS; not shown: His-tag added to C-terminus

[4] = target: T4, human FcγRIIb extracellular domain, His-tagged (human, UniProt P31994 43-217); assay: SPR Biacore, KD(SG1)/KD(variant)
T4 construct: also called FcgRIIb (human); not shown: C-terminal His-tag
T4 sequence: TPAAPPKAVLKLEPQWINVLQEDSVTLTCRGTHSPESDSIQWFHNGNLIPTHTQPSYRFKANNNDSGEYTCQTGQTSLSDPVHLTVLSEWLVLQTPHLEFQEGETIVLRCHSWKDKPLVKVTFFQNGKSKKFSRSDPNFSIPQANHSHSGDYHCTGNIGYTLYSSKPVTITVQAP
Description: (§1) The kinetic analysis of interactions between these antibodies and FcγR was carried out using BIACORE® T200 or BIACORE® 4000 (GE Healthcare). HBS-EP+ (GE Healthcare) was used as the running buffer, and the measurement temperature was set to 25° C. […] After the measurement, the antibody captured on the chip was washed off by allowing reaction with 10 mM glycine-HCl, pH1.5 and 25 mM NaOH so that the chip was regenerated and used repeatedly. The sensorgrams obtained as measurement results were analyzed by the 1:1 Langmuir binding model using the BIACORE® Evaluation Software to calculate the binding rate constant ka (L/mol/s) and dissociation rate constant kd (1/s), and the dissociation constant KD (mol/L) was calculated from these values. […] Regarding such interactions, KD values were calculated using the following 1:1 binding model described in BIACORE® T100 Software Handbook BR1006-48 Edition AE.

[5] = target: T5, cynomolgus monkey FcγRIIa3 extracellular domain with C-terminal His-tag (cynomolgus monkey); assay: SPR Biacore, antibody captured, FcgR analyte
T5 construct: also called cyno FcgRIIa3; cynoFcγRIIa3; not shown: His-tag added to C-terminus
T5 chain: T1 chain with K127I, N130K, H133P, Q142R

[6] = target: T6, human FcγRIIb extracellular domain with C-terminal His-tag (human, UniProt P31994 43-217); assay: SPR Biacore, antibody captured, FcgR analyte
T6 construct: also called human FcgRIIb; not shown: His-tag added to C-terminus
T6 sequence: T4 sequence

[7] = target: T7, human FcγRIIaH extracellular domain with C-terminal His-tag (human, UniProt P12318 34-217); assay: SPR Biacore, antibody captured, FcgR analyte
T7 construct: also called human FcgRIIaH; FcγRIIa (type H); not shown: His-tag added to C-terminus
T7 sequence: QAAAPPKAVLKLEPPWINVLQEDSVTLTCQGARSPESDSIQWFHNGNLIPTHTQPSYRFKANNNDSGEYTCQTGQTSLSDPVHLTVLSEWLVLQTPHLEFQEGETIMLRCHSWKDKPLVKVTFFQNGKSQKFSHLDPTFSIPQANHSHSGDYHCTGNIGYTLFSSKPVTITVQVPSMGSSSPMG

[8] = target: T8, human FcγRIIaR extracellular domain with C-terminal His-tag (human, UniProt P12318 34-217); assay: SPR Biacore, antibody captured, FcgR analyte
T8 construct: also called human FcgRIIaR; FcγRIIa (type R); not shown: His-tag added to C-terminus
T8 chain: T7 sequence with H134R

[9] = target: T9, cynomolgus monkey FcγRIIa3 extracellular domain with C-terminal His-tag (cynomolgus monkey); assay: SPR; KD of SG1 / KD of variant
T9 construct: also called cyno FcγRIIa3; FcgRIIa3
T9 chain: T1 chain with K127I, N130K, H133P, Q142R
Description: as §1

[10] = target: T10, cynomolgus monkey FcγRIIb extracellular domain with C-terminal His-tag (cynomolgus monkey); assay: SPR; KD of SG1 / KD of variant
T10 construct: also called cyno FcγRIIb; cynoFcγRIIb
T10 chain: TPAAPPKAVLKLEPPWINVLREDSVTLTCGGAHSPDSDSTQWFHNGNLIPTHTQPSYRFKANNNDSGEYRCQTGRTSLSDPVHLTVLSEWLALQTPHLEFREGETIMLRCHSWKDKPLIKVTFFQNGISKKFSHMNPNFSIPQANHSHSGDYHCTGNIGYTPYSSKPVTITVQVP
Description: as §1

[11] = target: T11, cynomolgus monkey FcγRIIIaS extracellular domain with C-terminal His-tag (cynomolgus monkey, UniProt Q8SPW2 21-206 at identity 1.00)); assay: SPR; KD of SG1 / KD of variant
T11 construct: also called cyno FcγRIIIaS; FcgRIIIaS
T11 chain: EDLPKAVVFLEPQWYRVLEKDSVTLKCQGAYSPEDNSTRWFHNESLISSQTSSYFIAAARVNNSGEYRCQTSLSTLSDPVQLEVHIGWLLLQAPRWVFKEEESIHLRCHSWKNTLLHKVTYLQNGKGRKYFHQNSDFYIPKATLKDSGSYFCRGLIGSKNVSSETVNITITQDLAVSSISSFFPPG
Description: as §1

[12] = target: T12, human FcγRIIaR extracellular domain with C-terminal His-tag (human, UniProt P12318 34-217); assay: SPR; KD of SG1 / KD of variant
T12 construct: also called human FcγRIIa (type R); FcgRIIaR
T12 chain: T7 sequence with H134R
Description: as §1

[13] = target: T13, human FcγRIIaR extracellular domain with C-terminal His-tag (human, UniProt P12318 34-217); assay: SPR (Biacore), KD of SG1 divided by KD of variant
T13 construct: also called human FcgRIIaR; FcγRIIa (type R)
T13 chain: T7 sequence with H134R
Description: as §1

[14] = target: T14, cynomolgus monkey FcγRIIb extracellular domain with C-terminal His-tag (cynomolgus monkey); assay: SPR Biacore, antibody captured, FcgR analyte
T14 construct: also called cyno FcgRIIb; cynoFcγRIIb; not shown: His-tag added to C-terminus
T14 chain: T10 chain

- KD fold (SG1 = 1) [4]: 1.5 fold
B3: M103205H795-MY041/M103202L889-SK1 (antibody, human IgG1, kappa, name in EU numbering)
heavy: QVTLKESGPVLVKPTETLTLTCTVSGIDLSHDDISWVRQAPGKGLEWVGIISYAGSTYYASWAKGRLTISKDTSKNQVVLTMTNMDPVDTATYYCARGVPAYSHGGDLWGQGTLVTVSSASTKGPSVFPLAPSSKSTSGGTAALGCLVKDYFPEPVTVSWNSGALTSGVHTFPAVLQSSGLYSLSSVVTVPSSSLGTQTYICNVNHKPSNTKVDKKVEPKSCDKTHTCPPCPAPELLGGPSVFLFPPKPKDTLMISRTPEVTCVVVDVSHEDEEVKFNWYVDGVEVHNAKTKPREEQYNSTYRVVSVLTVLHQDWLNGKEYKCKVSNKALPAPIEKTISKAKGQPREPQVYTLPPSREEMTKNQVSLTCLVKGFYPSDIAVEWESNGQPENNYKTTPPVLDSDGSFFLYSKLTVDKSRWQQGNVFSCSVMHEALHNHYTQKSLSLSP
light: DIVMTQSPATLSLSPGERATLSCTSSQSVYHANWLSWFQQKPGQPPKLLIYWASTLAYGVPSRFSGSGSGTDFTLTISSLQPEDAATYYCAGGYGGGRYAFGQGTKVEIKRTVAAPSVFIFPPSDEQLKSGTASVVCLLNNFYPREAKVQWKVDNALQSGNSQESVTEQDSKDSTYSLSSTLTLSKADYEKHKVYACEVTHQGLSSPVTKSFNRGEC
notes: Substitution introduced into M103205H795-SG1; EU numbering

- Kd [2]: 23000 nM
- Kd [5]: 1200 nM
- KD fold (SG1 = 1) [3]: 0.17 fold
- Kd [3]: 7900 nM
- KD fold (SG1 = 1) [6]: 2.5 fold
B4: M103205H795-MY170/M103202L889-SK1 (antibody, human IgG1, kappa, name in EU numbering)
heavy: QVTLKESGPVLVKPTETLTLTCTVSGIDLSHDDISWVRQAPGKGLEWVGIISYAGSTYYASWAKGRLTISKDTSKNQVVLTMTNMDPVDTATYYCARGVPAYSHGGDLWGQGTLVTVSSASTKGPSVFPLAPSSKSTSGGTAALGCLVKDYFPEPVTVSWNSGALTSGVHTFPAVLQSSGLYSLSSVVTVPSSSLGTQTYICNVNHKPSNTKVDKKVEPKSCDKTHTCPPCPAPELLNGPSVFLFPPKPKDTLMISRTPEVTCVVVDVSEEDPEVKFNWYVDGVEVHNAKTKPREEQYNSTYRVVSVLTVLHQDWLNGKEYKCKVSNKALPAPIEKTISKAKGQPREPQVYTLPPSREEMTKNQVSLTCLVKGFYPSDIAVEWESNGQPENNYKTTPEVLDSDGSFFLYSKLTVDKSRWQQGNVFSCSVMHEALHNHYTQKSLSLSP
light: B3 light
notes: EU numbering

- KD fold (SG1 = 1) [3]: 0.12 fold
- Kd [3]: 2900 nM
- Kd [7]: 1000 nM
- KD fold (SG1 = 1) [8]: 0.1 fold
- Kd [8]: 2000 nM
- Kd [6]: 1100 nM
B5: M103205H795-MY177/M103202L889-SK1 (antibody, human IgG1, kappa, name in EU numbering)
heavy: B4 heavy with E398N
light: B3 light
notes: EU numbering

- KD fold (SG1 = 1) [9]: 0.8 fold
- KD fold (SG1 = 1) [10]: 0.9 fold
- KD fold (SG1 = 1) [11]: 0.15 fold
- KD fold (SG1 = 1) [12]: 1 fold
B6: M103205H795-MY316 (heavy chain) with M103202L889-SK1 (light chain) (antibody, human IgG1, kappa, name in EU numbering)
heavy: B4 heavy with N238L, Q297L, A332K, E398K
light: B3 light
notes: Substitutions introduced into M103205H795-SG1; positions in EU numbering

- Kd [2]: 23000 nM
- KD fold (SG1 = 1) [3]: 0.1 fold
- Kd [3]: 3500 nM
B7: M103205H795-MY169/M103202L889-SK1 (antibody, human IgG1, kappa, name in EU numbering)
heavy: B4 heavy with E398D
light: B3 light
notes: EU numbering

- KD fold (SG1 = 1) [2]: 1.7 fold
- Kd [5]: 1200 nM
- KD fold (SG1 = 1) [3]: 0.17 fold
- Kd [3]: 3100 nM
- Kd [6]: 1900 nM
B10: M103205H795-MY180/M103202L889-SK1 (antibody, human IgG1, kappa, name in EU numbering)
heavy: B4 heavy with E398S
light: B3 light
notes: EU numbering

The remaining lines, values behind:

B1: M103205H795-MY006/M103202L889-SK1 (antibody, human IgG1, kappa, name in EU numbering)
heavy: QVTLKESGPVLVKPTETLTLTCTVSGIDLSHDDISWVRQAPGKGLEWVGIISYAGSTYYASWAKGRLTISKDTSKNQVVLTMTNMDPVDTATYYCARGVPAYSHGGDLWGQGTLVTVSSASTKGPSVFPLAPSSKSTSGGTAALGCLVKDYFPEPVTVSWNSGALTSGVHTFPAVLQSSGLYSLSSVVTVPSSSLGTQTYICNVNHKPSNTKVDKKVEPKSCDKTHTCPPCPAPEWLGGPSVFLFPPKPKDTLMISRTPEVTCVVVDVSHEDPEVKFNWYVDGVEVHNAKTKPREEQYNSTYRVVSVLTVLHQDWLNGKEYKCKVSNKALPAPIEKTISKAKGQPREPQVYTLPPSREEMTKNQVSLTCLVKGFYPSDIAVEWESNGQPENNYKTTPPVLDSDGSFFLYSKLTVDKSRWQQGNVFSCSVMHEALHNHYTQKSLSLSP
light: B3 light
notes: as for B3
- Kd [1]: 1900 nM

B2: M103205H795-MY202/M103202L889-SK1 (antibody, human IgG1, kappa, name in EU numbering)
heavy: B4 heavy with S241V, E270D, A332K, E398P
light: B3 light
notes: substitutions in EU numbering, introduced into M103205H795-SG1
- KD fold (SG1 = 1) [2]: 3.7 fold
- KD fold (SG1 = 1) [3]: 0.09 fold

B8: M103205H795-MY289/M103202L889-SK1 (antibody, human IgG1, kappa, name in EU numbering)
heavy: B4 heavy with E270H, A332K, E398M
light: B3 light
notes: as for B2
- KD fold (SG1 = 1) [5]: 1 fold
- KD fold (SG1 = 1) [3]: 0.07 fold
- KD fold (SG1 = 1) [7]: 0.8 fold
- KD fold (SG1 = 1) [8]: 0.3 fold
- KD fold (SG1 = 1) [6]: 1.8 fold

B9: M103205H795-MY525 / M103202L889-SK1 (antibody, human IgG1, kappa, name in EU numbering)
heavy: B4 heavy with A233T, N238T, S241V, E270D, A332K, E398P
light: B3 light
- KD fold (SG1 = 1) [13]: 6.9 fold

B11: M103205H795-MY276 (heavy chain) with M103202L889-SK1 (light chain) (antibody, human IgG1, kappa, name in EU numbering)
heavy: B4 heavy with N238I, E270D, A332K, E398K
light: B3 light
notes: as for B6
- KD fold (SG1 = 1) [10]: 5.6 fold
- KD fold (SG1 = 1) [11]: 0.3 fold

B12: M103205H795-MY309 (heavy chain) with M103202L889-SK1 (light chain) (antibody, human IgG1, kappa, name in EU numbering)
heavy: B4 heavy with N238T, A332K, E398M
light: B3 light
notes: as for B6
- KD fold (SG1 = 1) [10]: 2.5 fold
- KD fold (SG1 = 1) [11]: 0.3 fold
- KD fold (SG1 = 1) [12]: 4.2 fold

B13: M103205H795-MY173/M103202L889-SK1 (antibody, human IgG1, kappa, name in EU numbering)
heavy: B4 heavy with E398H
light: B3 light
notes: EU numbering
- KD fold (SG1 = 1) [2]: 1.5 fold
- Kd [5]: 8000 nM
- Kd [14]: 730 nM
- KD fold (SG1 = 1) [3]: 0.12 fold
- Kd [3]: 3100 nM
- Kd [6]: 1000 nM

Reference: patent publication US20250076311A1 (Chugai, published 2025)
